# How the values were obtained:
# [1] = target: T1, human FOLR1 protein, His Tag (ACRO FO1-H52H1) (human, UniProt P15328 25-233); test: ELISA, coated hFOLR1-His, supernatant 1x
# T1 construct: Bought protein coated on ELISA plates; not shown: His tag
# [2] = target: T1, human FOLR1 protein, His Tag (ACRO …); test: ELISA, coated hFOLR1-His, supernatant 5x
# [3] = target: T1, human FOLR1 protein, His Tag (ACRO …); test: ELISA, coated hFOLR1-His, supernatant 25x
# [4] = target: T1, human FOLR1 protein, His Tag (ACRO …); test: ELISA, coated hFOLR1-His, HEK293 supernatant
# [5] = target: T2, cynomolgus FOLR1 protein, His Tag (ACRO F01-C52H8) (cynomolgus, UniProt A0A2K5U044 25-233); test: ELISA, coated cyno FOLR1-His, supernatant 1x
# T2 construct: Bought protein coated on ELISA plates; also called Cynomolgus/Rhesus macaque FOLR1, Protein, His Tag; not shown: His tag
# [6] = target: T2, cynomolgus FOLR1 protein, His Tag (ACRO …); test: ELISA, coated cyno FOLR1-His, supernatant 5x
# [7] = target: T2, cynomolgus FOLR1 protein, His Tag (ACRO …); test: ELISA, coated cyno FOLR1-His, supernatant 25x
# [8] = target: T1, human FOLR1 protein, His Tag (ACRO …); test: ratio of OD450 on hFOLR1 to OD450 on anti-human IgG Fc
# T2 sequence (A0A2K5U044 entry or part of it): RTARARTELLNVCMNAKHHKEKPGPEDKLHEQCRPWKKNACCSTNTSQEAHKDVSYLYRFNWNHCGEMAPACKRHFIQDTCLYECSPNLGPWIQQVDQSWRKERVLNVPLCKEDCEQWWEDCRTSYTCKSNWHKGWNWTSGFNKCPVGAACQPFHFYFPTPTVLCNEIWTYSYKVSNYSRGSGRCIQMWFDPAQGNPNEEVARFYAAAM
# T1 sequence (P15328 25-233 limits assumed): as the sequence (A0A2K5U044 entry or part of it) above, with T2I, R4W, K37R, P146A, Y171H counted along it
Binder,OD450 [1] [OD450],OD450 [2] [OD450],OD450 [3] [OD450],OD450 [4] [OD450],OD450 [5] [OD450],OD450 [6] [OD450],OD450 [7] [OD450],Target binding/IgG level [8]
"F40 (antibody, V domains shown, Tested as full-length IgG with an IgG1 Fc from HEK293, as supernatant or purified; also called clone F40; anti-FOLR1 antibody F40) VH: EVQLLESGGGVVQPGRSLRLSCAASGFTFSSYAMHWVRQAPGKGLEWVAVISYDGSNKYYADSVKGRFIISRDNSKNTVYLQMNSLRAEDTAVYYCARPTYVFTYTGSSFDYWGQGTQVTVSS VL: DIQVTQSPSSLSASLGDTVSITCRASRGLTDSVAWYQQKPGQAPKLLIYAASTLQSGVPSRFGGSGSGSYFTLTITSLQPEDVATYYCQNYKSAPWTFGQGTKVEIK",0.811,0.382,0.163,2.39,1.35,1.11,0.924,1.02
"F1 (antibody, V domains shown, also called clone F1; anti-FOLR1 antibody F1) VH: EVQLLESGGGVVQPGRSLRLSCAASGFTFSSYGMHWVRQAPGKGLEWVAVISYDGSNKYYADSVKGRFTISRDNSKNTLYLQMNSLRAEDTAVYYCARPRAYYGAYGSSFDYWGQGTQVTVSS VL: EIVMTQSPSSVSASVGDRVAITCRASQGISSWLAWYQQKPGKAPKLLIYAASSLQSGVPSRFSGSGSGTDFTLTISSLQPEDFATYYCQQSYSTPLTFGGGTKVDIK",1.66,1.45,1.18,2.43,1.38,1.26,0.994,1.08
"F26 (antibody, V domains shown, Tested as full-length IgG with an IgG1 Fc from HEK293, as supernatant or purified; also called clone F26; anti-FOLR1 antibody F26) VH: EVQLLESGGGVVQRGRSLRLSCAASGFTFSSYGMHWVRQAPGKGLEWVAVISYDGSNKYYADSVKGRFTISRDNSKNTLYLPMNSLRAEDTAVYYCARPRAYYGAYGSSFDYWGQGTQVTVSS VL: EIVMTQSPSSVSASVGDRVAITCRASQGISSWLAWYQQKPGKAPKLLIYAASSLQSGVPSRFSGSGSGTDFTLTISSLQPEDFATYYCQQSYSTPLTFGGGTKVDIK",1.64,1.51,1.48,2.43,1.24,1.21,1.02,1.21
"F123 (antibody, V domains shown, Tested as full-length IgG with an IgG1 Fc from HEK293, as supernatant or purified; also called clone F123; anti-FOLR1 antibody F123) VH: EVQLLESGGGVVQPERSLRLSCAASGFTFSSYGMHWVRQAPGKGLEWVAVISYDGSNKYYADSVKGRFTISRANSKNTLYLQMNSLRAEDTAVYYCARPRAYYGAYGSSFDYWGQGTQVTVSS VL: EIVMTQSPSSVSASVGDRVAITCRASQGISSWLAWYQQKPGKAPKLLIYAASSLQSGVPSRFSGSGSGTDFTLTISSLQPEDFATYYCQQSYSTPLTFGGGTKVDIK",1.72,1.47,1.33,2.32,1.36,1.3,1.07,1.06
"F112 (antibody, V domains shown, Tested as full-length IgG with an IgG1 Fc from HEK293, as supernatant or purified; also called clone F112; anti-FOLR1 antibody F112) VH: EVQLLESGGGVVQPGRSLRLSCAASGFTFSSYGMHWVRQAPGKGLEWVAVISYDGSNKYYADSVKGRFTISRHNSKNTLYLQMNSLRAEDTAVYYCARPRAYYGAYGSSFDYWGQGTQVTVSS VL: EIVMTQSPSSVSASVGDRVAITCRASQGISSWLAWYQQKPGKAPKLLIYAASSLQSGVPSRFSGSGSGTDFTLTISSLQPEDFATYYCQQSYSTPLTFGGGTKVDIK",1.56,1.42,1.17,2.35,1.26,1.21,0.933,1.12
"F138 (antibody, V domains shown, Tested as full-length IgG with an IgG1 Fc, HEK293 supernatant; also called clone F138; anti-FOLR1 antibody F138) VH: EVQLLESGGGVVQPGRSLRLSCAASGFTFSSYGMHWVRQAPGKGLEWVAVISYDGSNKYYADSVKGRFTISTHNSKNTLYLQMNSLRAEDTAVYYCARPRAYYGAYGSSFDYWGQGTQVTVSS VL: EIVMTQSPSSVSASVGDRVAITCRASQGISSWLAWYQQKPGKAPKLLIYAASSLQSGVPSRFSGSGSGTDFTLTISSLQPEDFATYYCQQSYSTPLTFGGGTKVDIK",1.64,1.69,1.83,2.41,1.14,1.14,1.17,1.2
"F8 (antibody, V domains shown, Tested as full-length IgG with an IgG1 Fc from HEK293, as supernatant or purified; also called clone F8; anti-FOLR1 antibody F8) VH: EVQLLESGGGVVQHGRSLRLSCAASGFTFSSYGMHWVRQAPGKGLEWVAVISYDGSNKYYADSVKGRFTISRDNSKNTLYLQMNSLRAEDTAVYYCARPRAYYGAYGSSFDYWGQGTQVTVSS VL: EIVMTQSPSSVSASVGDRVAITCRASQGISSWLAWYQQKPGKAPKLLIYAASSLQSGVPSRFSGSGSGTDFTLTISSLQPEDFATYYCQQSYSTPLTFGGGTKVDIK",1.67,1.65,1.31,2.45,0.896,1.28,1.06,1.12
"F100 (antibody, V domains shown, Tested as full-length IgG with an IgG1 Fc from HEK293, as supernatant or purified; also called clone F100; anti-FOLR1 antibody F100) VH: EVQLLESGGGVVQPGRSLRLSCAASGFTFSSYGMHWVRQAPGKGLEWVAVISYDGSNKYYADSVKGRFTISRPNSKNTLYLQMNSLRAEDTAVYYCARPRAYYGAYGSSFDYWGQGTQVTVSS VL: EIVMTQSPSSVSASVGDRVAITCRASQGISSWLAWYQQKPGKAPKLLIYAASSLQSGVPSRFSGSGSGTDFTLTISSLQPEDFATYYCQQSYSTPLTFGGGTKVDIK",1.61,1.53,1.18,2.3,1.16,1.03,0.875,1.48
"F48 (antibody, V domains shown, Tested as full-length IgG with an IgG1 Fc from HEK293, as supernatant or purified; also called clone F48; anti-FOLR1 antibody F48) VH: EVQLLESGGGVVQPGRSLRLSCAASGFTFSSYGMHWVRQAPGKGLEWVAVISYDGSNKYYADSVKGRFTISRDNSKNTLYLHMNSLRAEDTAVYYCARPRAYYGAYGSSFDYWGQGTQVTVSS VL: EIVMTQSPSSVSASVGDRVAITCRASQGISSWLAWYQQKPGKAPKLLIYAASSLQSGVPSRFSGSGSGTDFTLTISSLQPEDFATYYCQQSYSTPLTFGGGTKVDIK",1.56,1.59,1.29,2.54,1.15,1.04,0.908,1.12
